Experimental data as given in the DeepSol protein solubility set.

Assay: soluble on expression in E. coli; label from the status in PepcDB or PDB records

**Q.** For “MSQVQFSHNPLFCIDIIKTYKPDFTPRVAFILGSGLGALADQIENAVAISYEKLPGFPVSTVHGHAGELVLGHLQGVPVVCMKGRGHFYEGRGMTIMTDAIRTFKLLGCELLFCTNAAGSLRPEVGAGSLVALKDHINTMPGTPMVGLNDDRFGERFFSLANAYDAEYRALLQKVAKEEGFPLTEGVFVSYPGPNFETAAEIRMMQIIGGDVVGMSVVPEVISARHCDLKVVAVSAITNMAEGLSDVKLSHAQTLAAAELSKQNFINLICGFLRKIA”, which “soluble on expression in E. coli” value is on record?
**A.** soluble

**Q.** For “MSELLSSVSQQLLAPGGLELDSLPGILHELNGPGIDAADLYFQSQVSESWMLEDGIVKEGSFNLDQGVGVRAQSGEKTGFAYSNAITAEALKQAAVAARSISRAGQNGSVQAFKAVVPARLYAGENPLDVLSRAEKVELLKQIDAATRALDPRIQQVTVSMAGVWEQILVAASDGSLAADIRPLVRFNVSVIVEQNGRRERGGHGGGGRTDYRYFLQEDRAMGYAREALRQALVNLEAIPAPAGTLPVVMGAGWSGVLLHEAVGHGLEGDFNRKGSSAYSGRVGEKVASSLCTIVDDGTLAGRRGSLSVDDEGTPSNCNVLIENGVLKGYMQDKLNARLMGVARTGNGRRESYAHLPMPRMTNTYMLAGESDPQEIIASVEKGIYCANLGGGQVDITSGKFVFSTSEAYLIENGRITTPVKGATLIGNGPEAMSRVSMVGNDLALDSGVGTCGKDGQSVPVGVGQPTLKIDAITVGGTGA”, which “soluble on expression in E. coli” value is on record?
**A.** not soluble

**Q.** For “MKSTDQFQTHEVPWEEFIEALREEMKKQVGADIIDTVVCNLEDGFEVYTYVQGDLDFEYKEALERKYGSDAKTPNVLTIMLLASIYNTSEENIRLHADHKENPIVEVYVKQGNTL”, which “soluble on expression in E. coli” value is on record?
**A.** not soluble

**Q.** For “VSDFKYGALLNITTLSNKVLSLGYEKPFIDSGQARTRLNGPLAEFFLYKTDGIFKTQEQIDNYVTPDGEPIMISGKRPQLGDVKYIDTDNNGQITADDRQFCGSPWAKMQMSLVLNAEWKDFDFSMMWNGQFGNKIYNVSKWQGRLFSDNSNYLRFKKGEEPYQVNQNSDTPRIIYGDQRNSWDADRFLENGSYFRLKNISIGYNLKKEWLKNLGIDKLRLYATGSNLLTFTGYSGLDPDFINTNIWNSGTDSFSYPNTRSVMFGLDLTF”, which “soluble on expression in E. coli” value is on record?
**A.** not soluble

**Q.** With “GSMAGGVDGPIGIPFPDHSSDILSGLNEQRTQGLLCDVVILVEGREFPTHRSVLAACSQYFKKLFTSGAVVDQQNVYEIDFVSAEALTALMDFAYTATLTVSTANVGDILSAARLLEIPAVSHVCADLLDRQI” as the sequence, how does the “soluble on expression in E. coli” value read?
**A.** soluble

**Q.** Which “soluble on expression in E. coli” value does the source give for “MAEVHVRELKGWEEMEEVVALQREVWGRAESDLVPRGLLVAVQDEGGLVAGAFAEGRMVGFVFGFPTKDPALHHSHMLGVLEAYRGTGAALLLKRFQRDWCLARGVRRVVWTFDPMRGVNANFNLRKLGATAKTYLPDHYGPMSGINAGAPSDRLLAEWDL” here?
**A.** not soluble

**Q.** Which “soluble on expression in E. coli” value does the source give for “MSLRGLSTDHTTQIVNLEDNTQDLLLLLSLFKKITNVNPSKNFNVILASSLNEVGTLKVILNLYSSAHLIRINDEPILGQITLTFISELCSIEPIAAKLINSGLYSVLLESPLSVAIQQGDIKPEFSPRLHNIWSNGLLSIVLLLLSQFGIKVLPETCLFVSYFGKQIKSTIYNWGDNKLAVSSSLIKETNQLVLLQKMLNLLNYQELFIQPKNSDDQQEAVELVIGLDSEHDKKRLSAALSKFLTHPKYLNSRIIPTTLEEQQQLEDESSRLEFVKGISRDIKALQDSLFEGHHHHHH” here?
**A.** not soluble

**Q.** Which “soluble on expression in E. coli” value does the source give for “MLPERVLEILREMKRERIKGASWLAKKGAEAFLTLAEELDESLLEDAIMELREEVVKVNPSMASLYNLARFIPVTNRRDILKSRALEFLRRMEEAKRELASIGAQLIDDGDVIITHSFSSTVLEIIRTAKERKKRFKVILTESSPDYEGLHLARELEFSGIEFEVITDAQMGLFCREASIAIVGADMITKDGYVVNKAGTYLLALACHENAIPFYVAAETYKFHPTLKSGDVMLMERDLIRGNVRIRNVLFDVTPWKYVRGIITELGIVIPPRDIQLEHHHHHH” here?
**A.** not soluble

**Q.** For “MTSYKPEYLIPNLLDLVAEGEGLRIEFKRLIHSAPKIARSITAFANTSGGVILIGVDDDRRIVGIQSEKEALQVIDEAMRFHIEPKPRIEVHFEEFKRRMVLLVDIPKSPERPHFHIEPLIRRDTGKHGVERRVFIRDGSHNKAASDDRIELMLSSREPLKVAFTGRERCLLDWLNEHDRITAEEFADSAGIPMKEARRILVSLVRAGALRLDTANGDNSYTLAHRLEHHHHHH”, which “soluble on expression in E. coli” value is on record?
**A.** soluble

**Q.** With “MSLTQMNYAKEGIFTKEMQIVAQKENLSKDFLLENIACGKIIIPANINHKSLDPNGIGFGLRTKVNVNLGVSNDCVDYSEEMKKVELAHKFGIEAIMDLSNYGKTSRFRDELVNVSKAMIGTVPVYDAVGFLEKDLKQINAKDFLDVVYHHAKSGVDFMTIHAGINSRAAHIFKQSKRLTNIVSRGGSVLYAWMMMKDAENPFFEYYDDLLDICLKYDVTLSLGDALRPGSTHDASDGAQISELIELSLLTQRAWDVGIQVMIEGPGHMAINEIEANMQLEKRLCKGAPFYVLGPLVTDIGAGYDHISGAIGGAVAAASGADMLCYVTPAEHLRLPNLEDVREGIVATKIAAHAGDIAKLPKERARDDEMSKARQEIDWEKMFKLAIDGEKAKKMFNERRPDDLNSCSMCGKMCAMNTMNQILKGEDVSLAEGHHHHHH” as the sequence, how does the “soluble on expression in E. coli” value read?
**A.** soluble

**Q.** Which “soluble on expression in E. coli” value does the source give for “MGSDKIHHHHHHMSNENIVLARNTERAPKHHLAAQTVAFSHYNHLSAQLPIEPTSGQLVEGGIRAQATQCLKNIQAVVESINHVMSDIVRMTIFVKDMRDAAAVEEVYAAFFTHYYPAKTVVAVADLPLGASVQMEALVSNGEGTIPNAPQAGDLIKLTNQTVQAPIDALASQTVAFSHYNNLSAQLPIDPQTGRVVAGCVKTQTKQCLKNIKAILTSIDVPFDDIVKINIYLKDLSKLEAVNQVHAAFFPDSGIARTVNYMPARTVIAVADLPMGAAVQVEAVVSHGDGTPPQAIEDRHGLIIEANNTEHAPKCPFSTQTVAFSHYNHLSAQLPLDPKTNALVAGGIKEQTTQCLENIKAIIESVDHSLADLVKVNIFVKEIEELAAVDDVYQTYFPEGTPARRVIGVTDLPKGAQIQIEAIAGNAEGTPPIG” here?
**A.** not soluble

**Q.** For “MVGQIAKEMGLRAYIVGGVVRDILLGKEVWDVDFVVEGNAIELAKELARRHGVNVHPFPEFGTAHLKIGKLKLEFATARRETYPRPGAYPKVEPASLKEDLIRRDFTINAMAISVNLEDYGTLIDYFGGLRDLKDKVIRVLHPVSFIEDPVRILRALRFAGRLNFKLSRSTEKLLKQAVNLGLLKEAPRGRLINEIKLALREDRFLEILELYRKYRVLEEIIEGFQWNEKVLQKLYALRKVVDWHALEFSEERIDYGWLYLLILISNLDYERGKHFLEEMSAPSWVRETYKFMKFKLGSLKEELKKAKENYEVYRLLKPLHTSVLLLLMLEEELKEKIKLYLEKLRKVKLPKEKIEELKKQGLKGKELGERIEELKREIMNKIKLAAALE”, which “soluble on expression in E. coli” value is on record?
**A.** soluble

**Q.** Which “soluble on expression in E. coli” value does the source give for “MQPGYNGHGRGIYNFIGMTANRRSNLHNTVALDPDILTDTFQQCLFYQYAQCSILLMKEGATGFPFALYAPSTVSSYLYMR” here?
**A.** not soluble

**Q.** With “MRHFDIAITGAGLAGQIAAIALARAGRHVALIAPSSEKKDQRTTALMDQSIRFMDRLGLWSRIAPSAARLSTMQIIDGTDRLLRAPTVQFRSSEIGLDAFGWNIPNEALLGVLSEAVEQEHNITRLDTTAETIDIGNDRISVTIADGEVLSADFLIGADGRKSMVREAAGIGVKSWSYPQTAVVLNFSHSRPHGNVSTEFHTPTGPFTQVPLPDDRSSLVWVVTPQQAEELTALPLETLSLKVEERMQSMLGAVTVENSVQAWPLSSMTAHRFGKGRVALIGEAAHGFPPIGAQGLNLSLRDIIALTELLGAVSDRPIAADAGSSFDRKRRADVYSRTLSVDLLNRSLLSDFLPVQMARAAGLHVLSGIGTLRSMVMREGIEPGRGLKALPSLLFGSFKKAGLEHHHHHH” as the sequence, how does the “soluble on expression in E. coli” value read?
**A.** soluble

**Q.** Which “soluble on expression in E. coli” value does the source give for “MKITVIGAGNVGATTAFRLAEKQLARELVLLDVVEGIPQGKALDMYESGPVGLFDTKVTGSNDYADTANSDIVVITAGLPRKPGMTREDLLSMNAGIVREVTGRIMEHSKNPIIVVVSNPLDIMTHVAWQKSGLPKERVIGMAGVLDSARFRSFIAMELGVSMQDVTACVLGGHGDAMVPVVKYTTVAGIPVADLISAERIAELVERTRTGGAEIVNHLKQGSAFYSPATSVVEMVESIVLDRKRVLTCAVSLDGQYGIDGTFVGVPVKLGKNGVEHIYEIKLDQSDLDLLQKSAKIVDENCKMLDASQG” here?
**A.** soluble

**Q.** With “MITMKHVILVGDGMADYPLDELDGKTPLQVADKPNMDQLAGMGACGLLRTVPEGMEAGSDVANLSIMGYDPRRYYTGRGPLEAASIGVELGDDDVAFRCNLINADERIVDFNAGHIETAEASSLIDALNHELETRGRFYAGVSYRNLFVIEGRGYTSVRVEPPHDIVGESVAAHLPSGSEEADHIRELMLESAGVLRSHEVNLKRESMGKRPATMIWLWGQGLRPSMEPFSERYGIRGATITAVDLIKGLGVYAGLENIHVPGATGYLDTDYRAKGRYAAGALEEYDFLYVHVEAPDEAGHAGDAEEKIRAIENIDRFVLGRLLDALSDHEHRIAVLPDHPTPIEIRTHVPDPVPCILAGDGVDADQVKSYDEFTVREGSLGTWEAHRLMEIMMDPAARLRQLEHHHHHH” as the sequence, how does the “soluble on expression in E. coli” value read?
**A.** not soluble

**Q.** Which “soluble on expression in E. coli” value does the source give for “MSLKTLSLCPICLKRIPATILEEDGKIIIKKTCPEHGEFKDIYWGDAELYKKFDKYEFIGKIEVTNTKVKNGCPYDCGLCPNHKSTTILANIDVTNRCNLNCPICFANANKSGKVYEPSFEDIKRMMENLRKEIPPTPAIQFAGGEPTVRSDLPELIKLARDMGFLHVQLATNGIKLKNINYLKKLKEAGLSTIYLQFDGISEKPYLVARGKNLLPIKQKVIENCKKVGFDSVVLVPTLVRGVNDNEVGGIIRYAAENVDVVRGINFQPVSFTGRVDEKTLLEGRITIPDFIKLVEEQTDGEITEEDFYPVPSVAPISVLVEKLTNDRKPTLSSHQHCGTSTYVFVDEDGKLIPITRFIDVEGFLEIVKEKIEEIGKSKMHDVKVLGEIALKLPSLIDLDKAPKSVNIKKIIDLILSVLKSDYSALAELHYHMLMISCMHFMDAYNFDVKRVMRCCIHYATPDDRIIPFCTYNTLHRQEVEEKFSIPLEEWKRMHKIGGEDDREDYEGHHHHHH” here?
**A.** soluble

**Q.** With “GKPSWLGGGSTQPAQTIPWGIERVKAPSVWSITDGSVSVIQVAVLDTGVDYDHPDLAANIAWCVSTLRGKVSTKLRDCADQNGHGTHVIGTIAALNNDIGVVGVAPGVQIYSVRVLDARGSGSYSDIAIGIEQAILGPDGVADKDGDGIIAGDPDDDAAEVISMSLGGPADDSYLYDMIIQAYNAGIVIVAASGNEGAPSPSYPAAYPEVIAVGAIDSNDNIASFSNRQPEVSAPGVDILSTYPDDSYETLMGTAMATPHVSGVVALIQAAYYQKYGKILPVGTFDDISKNTVRGILHITADDLGPTGWDADYGYGVVRAALAVQAALG” as the sequence, how does the “soluble on expression in E. coli” value read?
**A.** soluble

**Q.** For “MKSVTSAQRPYQEVGAMIHDLIIKTPYNPGERLPPEREIAEMLDVTRTVVREALIMLEIKGLVEVRRGAGIYVLDSSGSHNTDSPDANVCNDAGPFELLQARQLLESNIAEFAALQATREDIVKMRQALQLEERELASSAPGSSESGDMQFHLAIAEATHNSMLVELFRQSWQWRENNPMWIQLHSHLDDSLYRKEWLGDHKQILAALIKKDARAAKLAMWQHLENVKQRLLEFSNVDDIYFDGYLFDSWPLDKVDA”, which “soluble on expression in E. coli” value is on record?
**A.** not soluble

**Q.** With “TSPVNWDVTGTFSMNRTYMKKLPYNGRDKNRVQGGLVWDAKSGTYVETGGLAEGERIGGRWGYKYLGVYDTDEEAAKAPVDTKVSGSKMNKKKVAGDAIWADLDNNGVIDDKDITFIGWANPDKKGALINNLSYKNFSLRLVVDFALGHSIANIWRCRANANARNAIITTTDVTNGNIWWQTGDAATAKYPRYDVASDWDNGYRNHMRTIAYAGMNSNGNADNTAYYSKGDYLCFREVSLGYELPRSVCSKMKVKGVSLNAGVTNIGYITAFDGLNPEQYDGQETGEYFLPIQFNFGVRLTF” as the sequence, how does the “soluble on expression in E. coli” value read?
**A.** not soluble
